Results from the supplement of paper PMC5998384.

Legend:
[1] = tested on: HeLa Kyoto; experiment: melting temperature (median over replicates), in situ; higher = more thermally stable
[2] = tested on: HeLa Kyoto; experiment: solubility change mitosis vs G1/S (difference of NP-40 vs SDS log2 ratios) (log2 ratio difference); higher = more soluble in mitosis
[3] = tested on: HeLa Kyoto; experiment: thermal stability score vs G1/S (z-score of summed log2 fold changes over temperatures); higher = more thermally stable than in G1/S
[4] = tested on: HeLa Kyoto; experiment: solubility in G1/S (NP-40 vs SDS abundance) (log2 ratio); higher = more soluble; conditions: cell cycle stage: G1/S
[5] = cell cycle stage: early G1 (4.5 h after nocodazole release)
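Wherever melting temperature (median over replicates), in situ is given: HeLa Kyoto cells synchronized by double thymidine or nocodazole block, proteins quantified by TMT10plex mass spectrometry, three independent biological replicates.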
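Wherever solubility change mitosis vs G1/S (difference of NP-40 vs SDS log2 ratios) is given: synchronized HeLa Kyoto cells (double thymidine block for G1/S, nocodazole release for mitosis), protein amounts in NP-40 versus SDS lysates quantified by mass spectrometry, three biological replicates.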
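Wherever solubility in G1/S (NP-40 vs SDS abundance) is given: HeLa Kyoto cells arrested at G1/S by double thymidine block, proteins quantified by TMT10plex mass spectrometry in mild NP-40 versus SDS extracts, three biological replicates.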
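Wherever thermal stability score vs G1/S (z-score of summed log2 fold changes over temperatures) is given: synchronized HeLa Kyoto cells, proteins quantified by TMT10plex mass spectrometry, three biological replicates, mitosis taken 0.5 h after nocodazole release, G1/S directly after double thymidine block.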

| Sequence | melting temperature ([1]; cell cycle stage: G1/S) | melting temperature ([1]; cell cycle stage: mitosis) | solubility change mitosis (log2) [2] | thermal stability score [3, 5] | thermal stability score ([3]; cell cycle stage: mitosis) | solubility in G1/S (log2) [4] |
| --- | --- | --- | --- | --- | --- | --- |
| MGRLASRPLLLALLSLALCRGRVVRVPTATLVRVVGTELVIPCNVSDYDGPSEQNFDWSFSSLGSSFVELASTWEVGFPAQLYQERLQRGEILLRRTANDAVELHIKNVQPSDQGHYKCSTPSTDATVQGNYEDTVQVKVLADSLHVGPSARPPPSLSLREGEPFELRCTAASASPLHTHLALLWEVHRGPARRSVLALTHEGRFHPGLGYEQRYHSGDVRLDTVGSDAYRLSVSRALSADQGSYRCIVSEWIAEQGNWQEIQEKAVEVATVVIQPSVLRAAVPKNVSVAEGKELDLTCNITTDRADDVRPEVTWSFSRMPDSTLPGSRVLARLDRDSLVHSSPHVALSHVDARSYHLLVRDVSKENSGYYYCHVSLWAPGHNRSWHKVAEAVSSPAGVGVTWLEPDYQVYLNASKVPGFADDPTELACRVVDTKSGEANVRFTVSWYYRMNRRSDNVVTSELLAVMDGDWTLKYGERSKQRAQDGDFIFSKEHTDTFNFRIQRTTEEDRGNYYCVVSAWTKQRNNSWVKSKDVFSKPVNIFWALEDSVLVVKARQPKPFFAAGNTFEMTCKVSSKNIKSPRYSVLIMAEKPVGDLSSPNETKYIISLDQDSVVKLENWTDASRVDGVVLEKVQEDEFRYRMYQTQVSDAGLYRCMVTAWSPVRGSLWREAATSLSNPIEIDFQTSGPIFNASVHSDTPSVIRGDLIKLFCIITVEGAALDPDDMAFDVSWFAVHSFGLDKAPVLLSSLDRKGIVTTSRRDWKSDLSLERVSVLEFLLQVHGSEDQDFGNYYCSVTPWVKSPTGSWQKEAEIHSKPVFITVKMDVLNAFKYPLLIGVGLSTVIGLLSCLIGYCSSHWCCKKEVQETRRERRRLMSMEMD [PTGFRN] | 56.7 °C | 57.1 °C | -0.133 | -2.55 | -2.42 | 0.0152 |
| MPLELELCPGRWVGGQHPCFIIAEIGQNHQGDLDVAKRMIRMAKECGADCAKFQKSELEFKFNRKALERPYTSKHSWGKTYGEHKRHLEFSHDQYRELQRYAEEVGIFFTASGMDEMAVEFLHELNVPFFKVGSGDTNNFPYLEKTAKKGRPMVISSGMQSMDTMKQVYQIVKPLNPNFCFLQCTSAYPLQPEDVNLRVISEYQKLFPDIPIGYSGHETGIAISVAAVALGAKVLERHITLDKTWKGSDHSASLEPGELAELVRSVRLVERALGSPTKQLLPCEMACNEKLGKSVVAKVKIPEGTILTMDMLTVKVGEPKGYPPEDIFNLVGKKVLVTVEEDDTIMEELVDNHGKKIKS [NANS] | 53 °C | 52.3 °C | -0.108 | -1.59 | -2.55 | 0.172 |
| MADQPKPISPLKNLLAGGFGGVCLVFVGHPLDTVKVRLQTQPPSLPGQPPMYSGTFDCFRKTLFREGITGLYRGMAAPIIGVTPMFAVCFFGFGLGKKLQQKHPEDVLSYPQLFAAGMLSGVFTTGIMTPGERIKCLLQIQASSGESKYTGTLDCAKKLYQEFGIRGIYKGTVLTLMRDVPASGMYFMTYEWLKNIFTPEGKRVSELSAPRILVAGGIAGIFNWAVAIPPDVLKSRFQTAPPGKYPNGFRDVLRELIRDEGVTSLYKGFNAVMIRAFPANAACFLGFEVAMKFLNWATPNL [SLC25A20] | 58 °C | 56.7 °C | -0.108 | -1.89 | -0.401 | -0.0167 |
| MGKAAAPSRGGGCGGRSRGLSSLFTVVPCLSCHTAAPGMSASTSGSGPEPKPQPQPVPEPERGPLSEQVSEAVSEAVPRSEPVSETTSEPEPGAGQPSELLQGSRPGSESSSGVGAGPFTKAASEPLSRAVGSATFLRPESGSLPALKPLPLLRPGQAKTPLGVPMSGTGTTSSAPLALLPLDSFEGWLLKWTNYLKGYQRRWFVLGNGLLSYYRNQGEMAHTCRGTINLSTAHIDTEDSCGILLTSGARSYHLKASSEVDRQQWITALELAKAKAVRVMNTHSDDSGDDDEATTPADKSELHHTLKNLSLKLDDLSTCNDLIAKHGAALQRSLTELDGLKIPSESGEKLKVVNERATLFRITSNAMINACRDFLELAEIHSRKWQRALQYEQEQRVHLEETIEQLAKQHNSLERAFHSAPGRPANPSKSFIEGSLLTPKGEDSEEDEDTEYFDAMEDSTSFITVITEAKEDSRKAEGSTGTSSVDWSSADNVLDGASLVPKGSSKVKRRVRIPNKPNYSLNLWSIMKNCIGRELSRIPMPVNFNEPLSMLQRLTEDLEYHHLLDKAVHCTSSVEQMCLVAAFSVSSYSTTVHRIAKPFNPMLGETFELDRLDDMGLRSLCEQVSHHPPSAAHYVFSKHGWSLWQEITISSKFRGKYISIMPLGAIHLEFQASGNHYVWRKSTSTVHNIIVGKLWIDQSGDIEIVNHKTNDRCQLKFLPYSYFSKEAARKVTGVVSDSQGKAHYVLSGSWDEQMECSKVMHSSPSSPSSDGKQKTVYQTLSAKLLWKKYPLPENAENMYYFSELALTLNEHEEGVAPTDSRLRPDQRLMEKGRWDEANTEKQRLEEKQRLSRRRRLEACGPGSSCSSEEEKEADAYTPLWFEKRLDPLTGEMACVYKGGYWEAKEKQDWHMCPNIF [OSBP2] | 50.7 °C | 51 °C | -0.137 | -0.699 | -0.707 | 0.0107 |
| MSCAGAAAAPRLWRLRPGARRSLSAYGRRTSVRFRSSGMTLDNISRAAVDRIIRVDHAGEYGANRIYAGQMAVLGRTSVGPVIQKMWDQEKDHLKKFNELMVTFRVRPTVLMPLWNVLGFALGAGTALLGKEGAMACTVAVEESIAHHYNNQIRTLMEEDPEKYEELLQLIKKFRDEELEHHDIGLDHDAELAPAYAVLKSIIQAGCRVAIYLSERL [COQ7] | 56.1 °C | 53.4 °C | -0.0504 | -2.12 | -0.639 | -0.0496 |
| MADAGIRRVVPSDLYPLVLGFLRDNQLSEVANKFAKATGATQQDANASSLLDIYSFWLKSAKVPERKLQANGPVAKKAKKKASSSDSEDSSEEEEEVQGPPAKKAAVPAKRVGLPPGKAAAKASESSSSEESSDDDDEEDQKKQPVQKGVKPQAKAAKAPPKKAKSSDSDSDSSSEDEPPKNQKPKITPVTVKAQTKAPPKPARAAPKIANGKAASSSSSSSSSSSSDDSEEEKAAATPKKTVPKKQVVAKAPVKAATTPTRKSSSSEDSSSDEEEEQKKPMKNKPGPYSSVPPPSAPPPKKSLGTQPPKKAVEKQQPVESSEDSSDESDSSSEEEKKPPTKAVVSKATTKPPPAKKAAESSSDSSDSDSSEDDEAPSKPAGTTKNSSNKPAVTTKSPAVKPAAAPKQPVGGGQKLLTRKADSSSSEEESSSSEEEKTKKMVATTKPKATAKAALSLPAKQAPQGSRDSSSDSDSSSSEEEEEKTSKSAVKKKPQKVAGGAAPSKPASAKKGKAESSNSSSSDDSSEEEEEKLKGKGSPRPQAPKANGTSALTAQNGKAAKNSEEEEEEKKKAAVVVSKSGSLKKRKQNEAAKEAETPQAKKIKLQTPNTFPKRKKGEKRASSPFRRVREEEIEVDSRVADNSFDAKRGAAGDWGERANQVLKFTKGKSFRHEKTKKKRGSYRGGSISVQVNSIKFDSE [NOLC1] | 59.5 °C | 57 °C | 1.11 | -2.83 | -4.21 | -0.953 |
| MNTADQARVGPADDGPAPSGEEEGEGGGEAGGKEPAADAAPGPSAAFRLMVTRREPAVKLQYAVSGLEPLAWSEDHRVSVSTARSIAVLELICDVHNPGQDLVIHRTSVPAPLNSCLLKVGSKTEVAECKEKFAASKDPTVSQTFMLDRVFNPEGKALPPMRGFKYTSWSPMGCDANGRCLLAALTMDNRLTIQANLNRLQWVQLVDLTEIYGERLYETSYRLSKNEAPEGNLGDFAEFQRRHSMQTPVRMEWSGICTTQQVKHNNECRDVGSVLLAVLFENGNIAVWQFQLPFVGKESISSCNTIESGITSPSVLFWWEYEHNNRKMSGLIVGSAFGPIKILPVNLKAVKGYFTLRQPVILWKEMDQLPVHSIKCVPLYHPYQKCSCSLVVAARGSYVFWCLLLISKAGLNVHNSHVTGLHSLPIVSMTADKQNGTVYTCSSDGKVRQLIPIFTDVALKFEHQLIKLSDVFGSVRTHGIAVSPCGAYLAIITTEGMINGLHPVNKNYQVQFVTLKTFEEAAAQLLESSVQNLFKQVDLIDLVRWKILKDKHIPQFLQEALEKKIESSGVTYFWRFKLFLLRILYQSMQKTPSEALWKPTHEDSKILLVDSPGMGNADDEQQEEGTSSKQVVKQGLQERSKEGDVEEPTDDSLPTTGDAGGREPMEEKLLEIQGKIEAVEMHLTREHMKRVLGEVYLHTWITENTSIPTRGLCNFLMSDEEYDDRTARVLIGHISKKMNKQTFPEHCSLCKEILPFTDRKQAVCSNGHIWLRCFLTYQSCQSLIYRRCLLHDSIARHPAPEDPDWIKRLLQSPCPFCDSPVF [GTF3C4] | 49.4 °C | 49.9 °C | -0.0904 | 1.42 | 3.08 | -0.0178 |
| MAAAALRSGWCRCPRRCLGSGIQFLSSHNLPHGSTYQMRRPGGELPLSKSYSSGNRKGFLSGLLDNVKQELAKNKEMKESIKKFRDEARRLEESDVLQEARRKYKTIESETVRTSEVLRKKLGELTGTVKESLHEVSKSDLGRKIKEGVEEAAKTAKQSAESVSKGGEKLGRTAAFRALSQGVESVKKEIDDSVLGQTGPYRRPQRLRKRTEFAGDKFKEEKVFEPNEEALGVVLHKDSKWYQQWKDFKENNVVFNRFFEMKMKYDESDNAFIRASRALTDKVTDLLGGLFSKTEMSEVLTEILRVDPAFDKDRFLKQCENDIIPNVLEAMISGELDILKDWCYEATYSQLAHPIQQAKALGLQFHSRILDIDNVDLAMGKMMEQGPVLIITFQAQLVMVVRNPKGEVVEGDPDKVLRMLYVWALCRDQDELNPYAAWRLLDISASSTEQIL [TIMM44] | 52 °C | 51.6 °C | -0.0435 | 0.205 | -0.742 | 0.144 |
| MVGREKELSIHFVPGSCRLVEEEVNIPNRRVLVTGATGLLGRAVHKEFQQNNWHAVGCGFRRARPKFEQVNLLDSNAVHHIIHDFQPHVIVHCAAERRPDVVENQPDAASQLNVDASGNLAKEAAAVGAFLIYISSDYVFDGTNPPYREEDIPAPLNLYGKTKLDGEKAVLENNLGAAVLRIPILYGEVEKLEESAVTVMFDKVQFSNKSANMDHWQQRFPTHVKDVATVCRQLAEKRMLDPSIKGTFHWSGNEQMTKYEMACAIADAFNLPSSHLRPITDSPVLGAQRPRNAQLDCSKLETLGIGQRTPFRIGIKESLWPFLIDKRWRQTVFH [MAT2B] | 55.5 °C | 56.3 °C | -0.0436 | -0.304 | -1.94 | 0.344 |
